Laboratory results reported in the nanobody polyreactivity screen of Harvey et al. (2022).

Assay: yeast display, Sf9 membrane polyspecificity reagent, FACS + sequencing; frameworks hold sequencing errors
Method in brief: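 Polyreactivity labels are assigned by the sorting gate from which each nanobody was recovered. The gates were low and high (top ~1%), set on anti-HA fluorescence for expression and streptavidin fluorescence for reagent binding. Before sorting, galactose-induced (36–48 hours) yeast display cells were stained for 1 hour at 4 °C with 10% biotinylated, detergent-solubilized Sf9 membrane reagent.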

In the case of “QVQLVESGGGLVQAGGSLRLSCAASGRTLRLYAMGWYRQAPGKERELVAAISSRGRTYYADSVKGRFTISRDNAKNTVYLQMNSLKPEDTAVYYCAVVVYQGFRSKYYYWGQGTQVTVSS”, the “polyreactivity (PSR sort gate)” value is reported as “high polyreactivity”.
For “QVQLVESGGGLVQAGGSLRLSCAASGRTLRRYAMGWYRQAPGKERELVADISWRGTSTNYADSVKGRFTISRDNAKNTVYLQMNSLKPEDTAVYYCAAKQTYTRLHYLGPSVWDNYDYWGQGTQVTVSS”, the “polyreactivity (PSR sort gate)” value was “high polyreactivity”.
With “QVQLVESGGGLVQAGGSLRLSCAASGRTLRYYAMGWYRQAPGKERELVATISRAGRTNYADSVKGRFTISRDNAKNTVYLQMNSLKPEDTAVYYCAAGRVVYSYSDNYDYWGQGTQVTVSS” the “polyreactivity (PSR sort gate)” value was “high polyreactivity”.
With “QVQLVESGGGLVQAGGSLRLSCAASGRTLRYYAMGWYRQAPGKERELVATITGSGGSTYYADSVKGRFTISRDNAKNTVYLQMNSLKPEDTAVYYCNARKVRYPYRWYDYWGQGTQVTVSS” the “polyreactivity (PSR sort gate)” value was “high polyreactivity”.
For “QVQLVESGGGLVQAGGSLRLSCAASGRTLSANAMGWYRQAPGKERELVATISTRGGRTYYADSVKGRFTISRDNAKNTVYLQMNSLKPEDTAVYYCAVTIRAKYTLKEDYWGQGTQVNVSS”, the “polyreactivity (PSR sort gate)” value was “low polyreactivity”.
With “QVQLVESGGGLVQAGGSLRLSCAASGRTLSFYAMGWYRQAPGKERELVAAISRRGGSTYYADSVKGRFTISRDNAKNTVYLQMNSLKPEDTAVYYCAARRWYPYKNYDYWGQGTQVTVSS” the “polyreactivity (PSR sort gate)” value was “high polyreactivity”.
For “QVQLVESGGGLVQAGGSLRLSCAASGRTLSGNAMGWYRQAPGKERELVASISTSTDGTYYADSVKGRFTISRDNAKNTVYLQMNSLKPEDTAVYYCTTTTYHWYYYRWEIFDYWGQGTQVTVSS”, the “polyreactivity (PSR sort gate)” value was “low polyreactivity”.
In the case of “QVQLVESGGGLVQAGGSLRLSCAASGRTLSVYAMGWYRQAPGKERELVAAITKSGGSTYYADSVKGRFTISRDNAKNTVYLQMNSLKPEDTAVYYCAAEGDWRGYALYNYWGQGTQVTVSS”, the “polyreactivity (PSR sort gate)” value is reported as “low polyreactivity”.
With “QVQLVESGGGLVQAGGSLRLSCAASGRTLSWYAMGWYRQAPGKEREFVAAITSSGASTYYADSVKGRFTISRDNAKNTVYLQMNSLKPEDTAVYYCAAEAVYVSSWYDEYYYFRYDYWGQGTQVTVSS” the “polyreactivity (PSR sort gate)” value was “high polyreactivity”.
With “QVQLVESGGGLVQAGGSLRLSCAASGRTLSYYAMGWYRQAPGKERELVAAIRHSAGSTYYADSVKGRFTISRDTAKNTVYLQMNSLKPEDTAVYYCAKKYYGHRYPSIYDYWGQGTQVTVSS” the “polyreactivity (PSR sort gate)” value was “high polyreactivity”.
For “QVQLVESGGGLVQAGGSLRLSCAASGRTLTAYAMGWYRQAPGKERELVAAISVTGDNTYYADSVKGRFTISRDNAKNTVYLQMNSLKPEDTAVYYCDARKQYKYGYWGQGTQVTVSS”, the “polyreactivity (PSR sort gate)” value was “low polyreactivity”.
With “QVQLVESGGGLVQAGGSLRLSCAASGRTLTGNAMGWYRPAPGKERELVAVISYSGTNTRYADSVKGRFTISRDNAKNTVYLQMNSLKPEDTAVYYCAADWLGISVVRDPFDHWGQGTQVTVSS” the “polyreactivity (PSR sort gate)” value was “high polyreactivity”.
For “QVQLVESGGGLVQAGGSLRLSCAASGRTLTGNAMGWYRQAPGKERELVAVISYSGTNTRYADSVKGRFTISRDNAKNTVYLQMNSLKPEDTAVYYCAARRPAPNYSSRYDYWGQGTQVTVSS”, the “polyreactivity (PSR sort gate)” value was “high polyreactivity”.
With “QVQLVESGGGLVQAGGSLRLSCAASGRTLTIYAMGWYRQAPGKERELVATIRSSGSTNYADSVKGRFTISRDNAKNTVYLQMNSLKPEDTAVYYCAARGNTPRTRRYGYWGQGTQVTVSS” the “polyreactivity (PSR sort gate)” value was “high polyreactivity”.
In the case of “QVQLVESGGGLVQAGGSLRLSCAASGRTLVHYAMGWYRQAPGKERELVAAISIGGDSTYAVSVKGRFTISRDNAKNTVYLQMNSLKPEDTAVYYCAASGWWDFFDPYFKFDYWGQGTQVTVSS”, the “polyreactivity (PSR sort gate)” value is reported as “low polyreactivity”.
For “QVQLVESGGGLVQAGGSLRLSCAASGRTLVWYTMGWYRQAPGKEREFVAVITTGSGSTYYADSVKGRFTISRDNAKNTVYLQMNSLKPEDTAVYYCNAGYGGYSYHYPPYEYWGQGTLVTVSS”, the “polyreactivity (PSR sort gate)” value was “low polyreactivity”.
In the case of “QVQLVESGGGLVQAGGSLRLSCAASGRTLVYYAMGWYRQAPGKERELVAAITWRGGRTYYADSVKGRFTISRDNAKNTVYLQMNSLKPEDTAVYYCAKDGGHTGDYWGQGTQVTVSS”, the “polyreactivity (PSR sort gate)” value is reported as “low polyreactivity”.
In the case of “QVQLVESGGGLVQAGGSLRLSCAASGRTLYANTMGWYRPAPGKERELVATIPRDGSTNYADSVKGRFTISRDTAKNTVYLQMNSLKPEDTAVYYCNADLWVNLDNDDDYWGQGTQVTVSS”, the “polyreactivity (PSR sort gate)” value is reported as “low polyreactivity”.
With “QVQLVESGGGLVQAGGSLRLSCAASGRTLYHYGMGWYRQAPGKERELVAAINFSGGSTNYADSVKGRFTISRDNAKNTVYLQMNSLKPEDTAVYYCNNEGRPDRDYWGQGTQVTVSS” the “polyreactivity (PSR sort gate)” value was “low polyreactivity”.
With “QVQLVESGGGLVQAGGSLRLSCAASGRTLYLYAMGWYRQAPGKERELVAAIDWRGTSTYYADSVKGRFTISRDNAKNTVYLQMNSLKPEDTAVYYCNAEGRWSSFTQRMDYWGQGTQVTVSS” the “polyreactivity (PSR sort gate)” value was “low polyreactivity”.
With “QVQLVESGGGLVQAGGSLRLSCAASGRTLYQYAMGWYRQAPGKERELVAVITSRGGSTNYADSVKGRFTISRDNAKNTVYLQMNSLKPEDTAVYYCAVLYPKYGKRYGYWGQGSQVTVSS” the “polyreactivity (PSR sort gate)” value was “high polyreactivity”.
In the case of “QVQLVESGGGLVQAGGSLRLSCAASGRTLYRYAMGWYRQEPGKERELVAAIRSGGRTNYADSVKGRFTISRDNAKNTVYLQMNSLKPEDTAVYYCAARTLRYPSTYDYWGQGTQVTVSS”, the “polyreactivity (PSR sort gate)” value is reported as “high polyreactivity”.
With “QVQLVESGGGLVQAGGSLRLSCAASGRTLYYNPMGWYRQAPGKEREFVAAISYSGGGTYYADSVKGRFTISRDNAKNTVYLQMNSLKPEDTAVYYCNARIRRPYRVTAEYDYWGQGTQVTVSS” the “polyreactivity (PSR sort gate)” value was “high polyreactivity”.
With “QVQLVESGGGLVQAGGSLRLSCAASGRTLYYYAMGWYRQAPGKERELVAAITRSGGSTYYADSVKGRFTISRDNAKNTVYLQMISLKPEDTEVYYFNKYGYKGGLGYDYWGQGTQVTVSS” the “polyreactivity (PSR sort gate)” value was “high polyreactivity”.
With “QVQLVESGGGLVQAGGSLRLSCAASGRTNWTYVMGWYRQAPGKERELVAAISRSGSSTYYADSVKGRFTISRDNAKNTVYLQMNSLKPEDTAVYYCNNVDGTTLDDHYMDYWGQGTQVTVSS” the “polyreactivity (PSR sort gate)” value was “low polyreactivity”.
For “QVQLVESGGGLVQAGGSLRLSCAASGRTQTRYTMGWYRQAPGKERELVATISRSGGNTHYADSLKGRFTISRDNAKNTVYLQMNSLKPEDTEVYYCNAVRYAIYGYDYWGQGTQVTVSS”, the “polyreactivity (PSR sort gate)” value was “high polyreactivity”.
For “QVQLVESGGGLVQAGGSLRLSCAASGRTSGFNTMGWYRQAPGKERELVAAISFSGGSTYYADSVKGRFTISRDNAKNTVYLQMNSLKPEDTAVYYCNALFRYLYRSGDYWGQGTQVTVSS”, the “polyreactivity (PSR sort gate)” value was “low polyreactivity”.
With “QVQLVESGGGLVQAGGSLRLSCAASGRTSGNNAMGWYRQAPGKERELVAAITRGGRTYYADSVKGRFTISRDNAKNTVYLQLNSLKPEDTAVYYCAARRYFYLFGYYYWGQGTQVTVSS” the “polyreactivity (PSR sort gate)” value was “high polyreactivity”.
With “QVQLVESGGGLVQAGGSLRLSCAASGRTSLGNAMGWYRQAPGKERELVAAISGSGGSTYYADSVKGRFTISRDNAKNTVYLQMNSLKPEDTAVYYCNKKLYGYQHYYWYYYWGQGTQVTVSS” the “polyreactivity (PSR sort gate)” value was “high polyreactivity”.
In the case of “QVQLVESGGGLVQAGGSLRLSCAASGRTSLLYAMGWYRQAPGKERELVATISIGGSTYYADSVKGRFTISRDNAKKTVYLQMKSRKPEDTAVYYCAADVWWFFQPSTLGDFEYWGQGTQVTVSS”, the “polyreactivity (PSR sort gate)” value is reported as “low polyreactivity”.
For “QVQLVESGGGLVQAGGSLRLSCAASGRTSLVYAMGWYRQAPGKERELVAAITSSGGTTYYADSVKGRFTISRDNAKNTVYLQMNSLKPEDTAVYYCAADVDVSYWRMEYWGQGTQVTVSS”, the “polyreactivity (PSR sort gate)” value was “high polyreactivity”.
In the case of “QVQLVESGGGLVQAGGSLRLSCAASGRTSLVYAMGWYRQAPGKERQLVAAISRGGTTNYADSVKGRFTISRDNAKNTVYLQMNSLKPEDTAVYYCAARTIYHVRPMYYWGQGTQVTVSS”, the “polyreactivity (PSR sort gate)” value is reported as “high polyreactivity”.
With “QVQLVESGGGLVQAGGSLRLSCAASGRTSPGYAMGWYRQAPGKEREFVAGISRGGGSTYYADSVKGRFTISRDNAKNTVYLQMNSLKPEDTEVYYCNVRGPGFYWNWGQSHYYGYDYWGQGTQVTVSS” the “polyreactivity (PSR sort gate)” value was “high polyreactivity”.
For “QVQLVESGGGLVQAGGSLRLSCAASGRTSQINAMGWYIQAPGKERELVAAITRGGGITYYADSVKGRFTISRDNAKNTVYLQMNSLKPEDTAVYYCATRGSSFVQYRTRYGYWGQGTQVTVSS”, the “polyreactivity (PSR sort gate)” value was “high polyreactivity”.
In the case of “QVQLVESGGGLVQAGGSLRLSCAASGRTSRYYAMGWYRQAPGKERELVAAISSSGGNTYYADSVKGRFTISRDNAKNTVYLQMNSLKPEDTAVYYCNAYYPIRSSPYGYYYWGQGTQVTVSS”, the “polyreactivity (PSR sort gate)” value is reported as “high polyreactivity”.
In the case of “QVQLVESGGGLVQAGGSLRLSCAASGRTSSINAMGWYRQAPGKERELVAVITGGGRTSYADSVKGRFTISRDNAKNTVDLQMNSLIPEDTAVYYCNATRSYYGYYYWGQGTQVTVSS”, the “polyreactivity (PSR sort gate)” value is reported as “high polyreactivity”.
With “QVQLVESGGGLVQAGGSLRLSCAASGRTSSTYDMGWYRLAPGKERELVADITWYGGSTYYADSVKGRFTISRDNAKNTVYLQMNSLIPEDTAVYYCAAERKDGGYGYGFYWGVVGLDYWGQGTQVTVSS” the “polyreactivity (PSR sort gate)” value was “low polyreactivity”.
In the case of “QVQLVESGGGLVQAGGSLRLSCAASGRTSSVYAMGWYRQAPGKESELVAAINRSDGGTYYADSVKGRFTISRDNAKNTVYLQMNSLKPEDTAVYYCARRYYYQYRYDYWGQGTQVTVSS”, the “polyreactivity (PSR sort gate)” value is reported as “high polyreactivity”.
With “QVQLVESGGGLVQAGGSLRLSCAASGRTSSYTMGWYRQAPGKERELVAAITRRGVSTYYADSLKGRFTISRDNAKNTVYFQMNSLKAEDTAVYYCAVGPRASFGYGYWGQGTQVTVSS” the “polyreactivity (PSR sort gate)” value was “high polyreactivity”.
In the case of “QVQLVESGGGLVQAGGSLRLSCAASGRTSVPYAMGWYRQAPGKERELVAAITSGGSTYYADSVKGRFTISRDNAKNTVYLQMNSQKPEDTAVYYCAASQPHSAPYTASYGSWGQGTQVTVSS”, the “polyreactivity (PSR sort gate)” value is reported as “low polyreactivity”.
In the case of “QVQLVESGGGLVQAGGSLRLSCAASGRTSVRYAMGWYRQAPGKERELVAAISWSGGSTYYADSVKGRFTISRDNAKNTVYLQMNSLKPEDTAVYYCAAERGPTNHTSYPWYEYDYWGQGTQVTVSS”, the “polyreactivity (PSR sort gate)” value is reported as “low polyreactivity”.
With “QVQLVESGGGLVQAGGSLRLSCAASGRTSVVNAMGWYRQAPGKERELVAAITSGGSTHYADSVKGRFTISRDNAKNTVYLPMNSLKPEDTAVYYCNARDRRRTNLLDYWGQGTQVTVSS” the “polyreactivity (PSR sort gate)” value was “low polyreactivity”.
With “QVQLVESGGGLVQAGGSLRLSCAASGRTSWVYAMGWYRQAPGTERELVASIRKRTVVYADSVKGRFTISRDNAKNTVYLQMNSLKPEDTAVYYCNADTTFYGYRTYRPENYWGQGTQVTVSS” the “polyreactivity (PSR sort gate)” value was “high polyreactivity”.
